Results published in patent US20110091994A1, “Methods for Screening Compounds for Treating and/or Preventing an Hepatitis C Virus Infection” (priority 2008, published 2011).

Tests used:
HCV proteins = target: T1, HCV proteins (Hepatitis C virus genotype 1b, UniProt Q9WMX2); test: Validation by Y2H pairwise matrices; type: binding; settings: validation of interaction with HCV protein NS3;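 note: yeast two-hybrid pairwise tests of interactions first found in Y2H screens of HCV bait proteins against human cDNA libraries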
T1 construct: expressed in transfected cells

[1] = target: T2, HCV ORFs (Gal4-DB fusions) (Hepatitis C virus genotype 1b, UniProt Q9WMX2); type: binding, HCV genotype 1b, isolate con1; settings: HCV protein NS3 as bait; human protein as prey
T2 construct: expressed in transfected cells; host or cells: Saccharomyces cerevisiae MAV203 (IMAP1) / AH109 (IMAP2)

[2] = test system: HCV ORFs (Gal4-DB fusions); type: binding, HCV genotype 1b, isolate con1; settings: human protein listed by gene symbol; the value names the HCV protein it interacts with
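Throughout, for IMAP Y2H IMAP1 (number of IST): yeast two-hybrid screens using HCV genotype 1b proteins fused to Gal4-DB as baits against prey cDNA libraries from human spleen and foetal brain, IMAP1 via transformation and IMAP2 via mating.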
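Throughout, for IMAP Y2H IMAP2 (number of IST): yeast two-hybrid screens using HCV genotype 1b proteins fused to Gal4-DB as baits against prey cDNA libraries from human spleen and foetal brain, IMAP1 via transformation and IMAP2 via mating.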
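Throughout, for Interaction with viral protein: yeast two-hybrid screens using HCV genotype 1b proteins fused to Gal4-DB as baits against prey cDNA libraries from human spleen and foetal brain, IMAP1 via transformation and IMAP2 via mating.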

T2 sequence (Q9WMX2 1027-1657): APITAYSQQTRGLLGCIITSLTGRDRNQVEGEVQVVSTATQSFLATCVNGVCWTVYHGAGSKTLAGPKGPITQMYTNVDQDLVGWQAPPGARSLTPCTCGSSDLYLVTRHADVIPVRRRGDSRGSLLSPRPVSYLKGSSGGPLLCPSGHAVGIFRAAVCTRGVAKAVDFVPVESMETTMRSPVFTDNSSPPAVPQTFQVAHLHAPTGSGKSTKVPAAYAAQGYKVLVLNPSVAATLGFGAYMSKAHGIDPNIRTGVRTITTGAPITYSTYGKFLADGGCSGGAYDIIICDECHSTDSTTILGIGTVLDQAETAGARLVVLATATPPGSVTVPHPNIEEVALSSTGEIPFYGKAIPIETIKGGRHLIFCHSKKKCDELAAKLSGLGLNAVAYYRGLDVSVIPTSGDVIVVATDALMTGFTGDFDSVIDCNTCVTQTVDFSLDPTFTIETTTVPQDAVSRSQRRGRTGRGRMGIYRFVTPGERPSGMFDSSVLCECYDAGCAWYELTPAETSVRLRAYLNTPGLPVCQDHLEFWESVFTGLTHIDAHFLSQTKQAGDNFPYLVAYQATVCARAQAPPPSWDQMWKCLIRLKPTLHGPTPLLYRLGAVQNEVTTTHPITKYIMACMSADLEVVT
T1 sequence (Q9WMX2 1027-1657): as above

Row | Molecule | Y2H matrices (HCV proteins) | IMAP Y2H IMAP1 (number of IST) [1] | Interaction with viral protein [2] | IMAP Y2H IMAP2 (number of IST) [1]
1 | ZNF281 (protein, UniProt Q9Y2X9 1-895, looked up) Zinc finger protein 281: MKIGSGFLSGGGGTGSSGGSGSGGGGSGGGGGGGSSGRRAEMEPTFPQGMVMFNHRLPPVTSFTRPAGSAAPPPQCVLSSSTSAAPAAEPPPPPAPDMTFKKEPAASAAAFPSQRTSWGFLQSLVSIKQEKPADPEEQQSHHHHHHHHYGGLFAGAEERSPGLGGGEGGSHGVIQDLSILHQHVQQQPAQHHRDVLLSSSSRTDDHHGTEEPKQDTNVKKAKRPKPESQGIKAKRKPSASSKPSLVGDGEGAILSPSQKPHICDHCSAAFRSSYHLRRHVLIHTGERPFQCSQCSMGFIQKYLLQRHEKIHSREKPFGCDQCSMKFIQKYHMERHKRTHSGEKPYKCDTCQQYFSRTDRLLKHRRTCGEVIVKGATSAEPGSSNHTNMGNLAVLSQGNTSSSRRKTKSKSIAIENKEQKTGKTNESQISNNINMQSYSVEMPTVSSSGGIIGTGIDELQKRVPKLIFKKGSRKNTDKNYLNFVSPLPDIVGQKSLSGKPSGSLGIVSNNSVETIGLLQSTSGKQGQISSNYDDAMQFSKKRRYLPTASSNSAFSINVGHMVSQQSVIQSAGVSVLDNEAPLSLIDSSALNAEIKSCHDKSGIPDEVLQSILDQYSNKSESQKEDPFNIAEPRVDLHTSGEHSELVQEENLSPGTQTPSNDKASMLQEYSKYLQQAFEKSTNASFTLGHGFQFVSLSSPLHNHTLFPEKQIYTTSPLECGFGQSVTSVLPSSLPKPPFGMLFGSQPGLYLSALDATHQQLTPSQELDDLIDSQKNLETSSAFQSSSQKLTSQKEQKNLESSTGFQIPSQELASQIDPQKDIEPRTTYQIENFAQAFGSQFKSGSRVPMTFITNSNGEVDHRVRTSVSDFSGYTNMMSDVSEPCSTRVKTPTSQSYR | + | 1 | NS3 | 
2 | ZCCHC7 (protein, UniProt Q8N3Z6 1-543, looked up) Zinc finger CCHC …: MMFGGYETIEAYEDDLYRDESSSELSVDSEVEFQLYSQIHYAQDLDDVIREEEHEEKNSGNSESSSSKPNQKKLIVLSDSEVIQLSDGSEVITLSDEDSIYRCKGKNVRVQAQENAHGLSSSLQSNELVDKKCKSDIEKPKSEERSGVIREVMIIEVSSSEEEESTISEGDNVESWMLLGCEVDDKDDDILLNLVGCENSVTEGEDGINWSISDKDIEAQIANNRTPGRWTQRYYSANKNIICRNCDKRGHLSKNCPLPRKVRRCFLCSRRGHLLYSCPAPLCEYCPVPKMLDHSCLFRHSWDKQCDRCHMLGHYTDACTEIWRQYHLTTKPGPPKKPKTPSRPSALAYCYHCAQKGHYGHECPEREVYDPSPVSPFICYYDDKYEIQEREKRLKQKIKVLKKNGVIPEPSKLPYIKAANENPHHDIRKGRASWKSNRWPQENKETQKEMKNKNRNWEKHRKADRHREVDEDFPRGPKTYSSPGSFKTQKPSKPFHRSSHYHTSREDKSPKEGKRGKQKKKERCWEDDDNDNLFLIKQRKKKS | + | 2 | NS3 | 1
3 | XRN2 (protein, UniProt Q9H0D6 1-950, looked up) 5'-3' exoribonuclease 2: MGVPAFFRWLSRKYPSIIVNCVEEKPKECNGVKIPVDASKPNPNDVEFDNLYLDMNGIIHPCTHPEDKPAPKNEDEMMVAIFEYIDRLFSIVRPRRLLYMAIDGVAPRAKMNQQRSRRFRASKEGMEAAVEKQRVREEILAKGGFLPPEEIKERFDSNCITPGTEFMDNLAKCLRYYIADRLNNDPGWKNLTVILSDASAPGEGEHKIMDYIRRQRAQPNHDPNTHHCLCGADADLIMLGLATHEPNFTIIREEFKPNKPKPCGLCNQFGHEVKDCEGLPREKKGKHDELADSLPCAEGEFIFLRLNVLREYLERELTMASLPFTFDVERSIDDWVFMCFFVGNDFLPHLPSLEIRENAIDRLVNIYKNVVHKTGGYLTESGYVNLQRVQMIMLAVGEVEDSIFKKRKDDEDSFRRRQKEKRKRMKRDQPAFTPSGILTPHALGSRNSPGSQVASNPRQAAYEMRMQNNSSPSISPNTSFTSDGSPSPLGGIKRKAEDSDSEPEPEDNVRLWEAGWKQRYYKNKFDVDAADEKFRRKVVQSYVEGLCWVLRYYYQGCASWKWYYPFHYAPFASDFEGIADMPSDFEKGTKPFKPLEQLMGVFPAASGNFLPPSWRKLMSDPDSSIIDFYPEDFAIDLNGKKYAWQGVALLPFVDERRLRAALEEVYPDLTPEETRRNSLGGDVLFVGKHHPLHDFILELYQTGSTEPVEVPPELCHGIQGKFSLDEEAILPDQIVCSPVPMLRDLTQNTVVSINFKDPQFAEDYIFKAVMLPGARKPAAVLKPSDWEKSSNGRQWKPQLGFNRDRRPVHLDQAAFRTLGHVMPRGSGTGIYSNAAPPPVTYQGNLYRPLLRGQAQIPKLMSNMRPQDSWRGPPPLFQQQRFDRGVGAEPLLPWNRMLQTQNAAFQPNQYQMLAGPGGYPPRRDDRGGRQGYPREGRKYPLPPPSGRYNWN | + | 1 | NS3 | 
4 | ZHX3 (protein, UniProt Q9H4I2 1-956, looked up) Zinc fingers and homeoboxes …: MASKRKSTTPCMIPVKTVVLQDASMEAQPAETLPEGPQQDLPPEASAASSEAAQNPSSTDGSTLANGHRSTLDGYLYSCKYCDFRSHDMTQFVGHMNSEHTDFNKDPTFVCSGCSFLAKTPEGLSLHNATCHSGEASFVWNVAKPDNHVVVEQSIPESTSTPDLAGEPSAEGADGQAEIIITKTPIMKIMKGKAEAKKIHTLKENVPSQPVGEALPKLSTGEMEVREGDHSFINGAVPVSQASASSAKNPHAANGPLIGTVPVLPAGIAQFLSLQQQPPVHAQHHVHQPLPTAKALPKVMIPLSSIPTYNAAMDSNSFLKNSFHKFPYPTKAELCYLTVVTKYPEEQLKIWFTAQRLKQGISWSPEEIEDARKKMFNTVIQSVPQPTITVLNTPLVASAGNVQHLIQAALPGHVVGQPEGTGGGLLVTQPLMANGLQATSSPLPLTVTSVPKQPGVAPINTVCSNTTSAVKVVNAAQSLLTACPSITSQAFLDASIYKNKKSHEQLSALKGSFCRNQFPGQSEVEHLTKVTGLSTREVRKWFSDRRYHCRNLKGSRAMIPGDHSSIIIDSVPEVSFSPSSKVPEVTCIPTTATLATHPSAKRQSWHQTPDFTPTKYKERAPEQLRALESSFAQNPLPLDEELDRLRSETKMTRREIDSWFSERRKKVNAEETKKAEENASQEEEEAAEDEGGEEDLASELRVSGENGSLEMPSSHILAERKVSPIKINLKNLRVTEANGRNEIPGLGACDPEDDESNKLAEQLPGKVSCKKTAQQRHLLRQLFVQTQWPSNQDYDSIMAQTGLPRPEVVRWFGDSRYALKNGQLKWYEDYKRGNFPPGLLVIAPGNRELLQDYYMTHKMLYEEDLQNLCDKTQMSSQQVKQWFAEKMGEETRAVADTGSEDQGPGTGELTAVHKGMGDTYSEVSENSESWEPRVPEASSEPFDTSSPQAGRQLETD | + | 4 | NS3 | 
5 | ZBTB1 (protein, UniProt Q9Y2K1 1-713, looked up) Zinc finger and BTB …: MAKPSHSSYVLQQLNNQREWGFLCDCCIAIDDIYFQAHKAVLAACSSYFRMFFMNHQHSTAQLNLSNMKISAECFDLILQFMYLGKIMTAPSSFEQFKVAMNYLQLYNVPDCLEDIQDADCSSSKCSSSASSKQNSKMIFGVRMYEDTVARNGNEANRWCAEPSSTVNTPHNREADEESLQLGNFPEPLFDVCKKSSVSKLSTPKERVSRRFGRSFTCDSCGFGFSCEKLLDEHVLTCTNRHLYQNTRSYHRIVDIRDGKDSNIKAEFGEKDSSKTFSAQTDKYRGDTSQAADDSASTTGSRKSSTVESEIASEEKSRAAERKRIIIKMEPEDIPTDELKDFNIIKVTDKDCNESTDNDELEDEPEEPFYRYYVEEDVSIKKSGRKTLKPRMSVSADERGGLENMRPPNNSSPVQEDAENASCELCGLTITEEDLSSHYLAKHIENICACGKCGQILVKGRQLQEHAQRCGEPQDLTMNGLGNTEEKMDLEENPDEQSEIRDMFVEMLDDFRDNHYQINSIQKKQLFKHSACPFRCPNCGQRFETENLVVEHMSSCLDQDMFKSAIMEENERDHRRKHFCNLCGKGFYQRCHLREHYTVHTKEKQFVCQTCGKQFLRERQLRLHNDMHKGMARYVCSICDQGNFRKHDHVRHMISHLSAGETICQVCFQIFPNNEQLEQHMDVHLYTCGICGAKFNLRKDMRSHYNAKHLKRT | + | 1 | NS3 | 
6 | ZNF410 (protein, UniProt Q86VK4 1-478, looked up) Zinc finger protein 410: MLSDELESKPELLVQFVQNTSIPLGQGLVESEAKDITCLSLLPVTEASECSRLMLPDDTTNHSNSSKEVPSSAVLRSLRVNVGPDGEETRAQTVQKSPEFLSTSESSSLLQDLQPSDSTSFILLNLTRAGLGSSAEHLVFVQDEAEDSGNDFLSSESTDSSIPWFLRVQELAHDSLIAATRAQLAKNAKTSSNGENVHLGSGDGQSKDSGPLPQVEKKLKCTVEGCDRTFVWPAHFKYHLKTHRNDRSFICPAEGCGKSFYVLQRLKVHMRTHNGEKPFMCHESGCGKQFTTAGNLKNHRRIHTGEKPFLCEAQGCGRSFAEYSSLRKHLVVHSGEKPHQCQVCGKTFSQSGSRNVHMRKHHLQLGAAGSQEQEQTAEPLMGSSLLEEASVPSKNLVSMNSQPSLGGESLNLPNTNSILGVDDEVLAEGSPRSLSSVPDVTHHLVTMQSGRQSYEVSVLTAVNPQELLNQGDLTERRT | + | 1 | NS3 | 
7 | ZZZ3 (protein, UniProt Q8IYH5 1-903, looked up) ZZ-type zinc …: MAASRSTRVTRSTVGLNGLDESFCGRTLRNRSIAHPEEISSNSQVRSRSPKKRPEPVPIQKGNNNGRTTDLKQQSTRESWVSPRKRGLSSSEKDNIERQAIENCERRQTEPVSPVLKRIKRCLRSEAPNSSEEDSPIKSDKESVEQRSTVVDNDADFQGTKRACRCLILDDCEKREIKKVNVSEEGPLNSAVVEEITGYLAVNGVDDSDSAVINCDDCQPDGNTKQNSIGSYVLQEKSVAENGDTDTQTSMFLDSRKEDSYIDHKVPCTDSQVQVKLEDHKIVTACLPVEHVNQLTTEPATGPFSETQSSLRDSEEEVDVVGDSSASKEQCKENTNNELDTSLESMPASGEPEPSPVLDCVSAQMMSLSEPQEHRYTLRTSPRRAAPTRGSPTKNSSPYRENGQFEENNLSPNETNATVSDNVSQSPTNPGEISQNEKGICCDSQNNGSEGVSKPPSEARLNIGHLPSAKESASQHITEEEDDDPDVYYFESDHVALKHNKDYQRLLQTIAVLEAQRSQAVQDLESLGRHQREALKNPIGFVEKLQKKADIGLPYPQRVVQLPEIVWDQYTHSLGNFEREFKNRKRHTRRVKLVFDKVGLPARPKSPLDPKKDGESLSYSMLPLSDGPEGSSSRPQMIRGRLCDDTKPETFNQLWTVEEQKKLEQLLIKYPPEEVESRRWQKIADELGNRTAKQVASRVQKYFIKLTKAGIPVPGRTPNLYIYSKKSSTSRRQHPLNKHLFKPSTFMTSHEPPVYMDEDDDRSCFHSHMNTAVEDASDDESIPIMYRNLPEYKELLQFKKLKKQKLQQMQAESGFVQHVGFKCDNCGIEPIQGVRWHCQDCPPEMSLDFCDSCSDCLHETDIHKEDHQLEPIYRSETFLDRDYCVSQGTSYNYLDPNYFPANR | + | 1 | NS3 | 
